For data set [1], the target named is T1, Ac-IEPD-pNA (N-acetyl-L-isoleucyl-L-glutamyl-L-prolyl-L-aspartyl-p-nitroaniline).
T1 chain: IEPD

This note sets out measurements from patent US20060199251.

H6-IEGR-RAP, sequence (P30533 whole entry): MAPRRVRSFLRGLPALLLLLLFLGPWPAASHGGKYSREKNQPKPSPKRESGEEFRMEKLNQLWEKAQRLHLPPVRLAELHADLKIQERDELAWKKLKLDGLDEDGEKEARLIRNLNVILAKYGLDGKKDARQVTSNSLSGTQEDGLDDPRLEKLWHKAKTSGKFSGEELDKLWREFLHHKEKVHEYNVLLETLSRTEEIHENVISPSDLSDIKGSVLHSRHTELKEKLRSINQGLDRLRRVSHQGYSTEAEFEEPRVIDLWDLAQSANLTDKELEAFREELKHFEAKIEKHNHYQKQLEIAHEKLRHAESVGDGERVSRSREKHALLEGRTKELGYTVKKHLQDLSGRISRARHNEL

B1: purified bovine blood clotting factor Xa (protein)
chain: ANSFLEEVKQGNLERECLEEACSLEEAREVFEDAEQTDEFWSKYKDGDQCEGHPCLNQGHCKDGIGDYTCTCAEGFEGKNCEFSTREICSLDNGGCDQFCREERSEVRCSCAHGYVLGDDSKSCVSTERFPCGKFTQGRSRRWAIHTSEDALDASELEHYDPADLSPTESSLDLLGLNRTEPSAGEDGSQVVRIVGGRDCAEGECPWQALLVNEENEGFCGGTILNEFYVLTAAHCLHQAKRFTVRVGDRNTEQEEGNEMAHEVEMTVKHSRFVKETYDFDIAVLRLKTPIRFRRNVAPACLPEKDWAEATLMTQKTGIVSGFGRTHEKGRLSSTLKMLEVPYVDRSTCKLSSSFTITPNMFCAGYDTQPEDACQGDSGGPHVTRFKDTYFVTGIVSWGEGCARKGKFGVYTKVSNFLKWIDKIMKARAGAAGSRGHSEAPATWTVPPPLPL
With B1, in the data set with H6-IEGR-RAP, the “cleavage of fusion protein, SDS PAGE, ½ hour at 23° C., protease:fusion protein 1:1000” value is given as “After only ½ hour almost all of the fusion protein had been cleaved to give the correct product for both incubations”; the “degradation of fusion protein, SDS PAGE, 27 hours at 23° C.” value is “all of the fusion protein had been degraded to give a variety of smaller fragments after 27 hours, and there is no correctly cleaved product left”. For the same protein, in the data set with H6Ubi-IEGR-ApoA1, the “fusion protein cleaved, SDS PAGE, 6 hours at 23° C., protease:substrate 1:1000” value is listed as “only a small fraction of the FXa substrate, H6Ubi-IEGR-ApoA1, has been cleaved after 6 hours” and the “time to complete cleavage, 23° C., protease:substrate 1:1000” value is “FXa requires more than 48 hours to complete the cleavage of the FXa substrate”.

B2: GrB-H6 C228F (activated human Granzyme B variant, Cys228 (chymotrypsinogen numbering) to Phe, C-terminal hexa-His tag) (protein)
chain: MGSIEPDIIGGHEAKPHSRPYMAYLMIWDQKSLKRCGGFLIQDDFVLTAAHCWGSSINVTLGAHNIKEQEPTQQFIPVKRPIPHPAYNPKNFSNDIMLLQLERKAKRTRAVQPLRLPSNKAQVKPGQTCSVAGWGQTAPLGKHSHTLQEVKMTVQEDRKCESDLRHYYDSTIELCVGDPEIKKTSFKGDSGGPLVCNKVAQGIVSYGRNNGMPPRAFTKVSSFVHWIKKTMKRYLNSHHHHHH
With B2, the “cleavage by immobilized enzyme, non-reducing SDS-PAGE, room temperature over night” value with H6-TripUB IQAD↓SP is reported as “For all twelve cleavage experiments the fusion proteins are cleaved to give a single product corresponding to TripUbi moiety from which the H6 fusion partner has been cleaved off”. For the same protein, in the data set with H6-TripUB IEPD↓EP, the “fusion protein cleaved, SDS PAGE, 48 hours at 21° C., protease:fusion protein 1:500” value is “after 48 hours at 21 °C approximately 35-40% has been cleaved” and the “fusion protein cleaved, SDS PAGE, 50 hours at 21° C., protease:fusion protein 1:500” value is “after 50 hours at 21 °C approximately 40% has been cleaved”. Moreover, in the data set with H6-TripUB IEPD↓SP, the “cleavage of fusion protein, SDS PAGE, 96 hours at 23° C., protease:fusion protein 1:500” value was “the cleavage is almost 100% complete after 96 hours” and the “fusion protein cleaved, SDS PAGE, 48 hours at 21° C., protease:fusion protein 1:500” value was “After 48 hours approximately 40% has been cleaved at 21 °C”. For the same protein, in the data set with H6-TripUB IEPD↓TQ, the “cleavage of fusion protein, SDS PAGE, 24 hours at 23° C., protease:fusion protein 1:500” value is reported as “this is app. 100% completed after only 24 hours”. In addition, the “cleavage of fusion protein, SDS PAGE, 24 hours at 23° C., protease:fusion protein 1:500” value with H6-TripUB IEPD↓IV was “This is also the case for the cleavage of H6-TripUB IEPD↓IV (app. 100% completed after only 24 hours)”. For the same protein, the “fusion protein cleaved, SDS PAGE, 6 hours at 23° C., protease:substrate 1:1000” value with H6Ubi-IEPD-ApoA1 was “The GrB substrate, H6Ubi-IEPD-ApoA1, is approximately 100% cleaved after only 6 hours incubation at 23 °C”. In addition, in the data set with H6-TripUB IQAD↓SG, the “cleavage by immobilized enzyme, non-reducing SDS-PAGE, room temperature over night” value is listed as “For all twelve cleavage experiments the fusion proteins are cleaved to give a single product corresponding to TripUbi moiety from which the H6 fusion partner has been cleaved off”. In the data set with H6-TripUB IEPD↓EG, the “cleavage of fusion protein, SDS PAGE, 6 hours, protease:fusion protein 1:500” value is reported as “after only 6 hours the cleavage has been completed” and the “time to complete cleavage, protease to substrate ratio 1:500” value was “it takes less than 5 hours for GrB-H6 C228F to complete the cleavage of H6-TripUbi IEPD↓EG”. Further, in data set [1], the KM (µM), colorimetric assay, Lineweaver-Burk plot, 100 mM HEPES pH 7.75, 20 nM enzyme was 27 µM; the kcat was determined as 4.85 s⁻¹; the kcat/KM (10^4 s^-1M^-1) amounted to 180000 s^-1M^-1.

What is called kcat is the maximal rate divided by the concentration of active sites.
